Experiment [1] has as its target T1, GPC3 on the surface of hepatic cancer cell lines (SK-Hep1-GPC3 transfectant, HepG2, Huh7, Hep3B, SNU398) (human, UniProt P51654 25-554).
T1 construct: Species is not restated for the cells (hepatic cancer cell lines, or SK-Hep1 transfected with pCMV/GPC3); also called glypican 3
Briefly: FACS, HepG2 cells, 1 ug antibody; lower right panel.

In experiment [2] the target is T1, GPC3 on the surface of hepatic cancer …. Briefly: FACS, SK-Hep1-GPC3 cells, 1 ug antibody; lower right panel. The procedure: (§1) After detaching SK-Hep1-GPC3 cells by adding a TrypLE Express solution thereto, the detached SK-Hep1-GPC3 cells were put into a 50 mL tube and centrifuged at room temperature and 2000 rpm for 3 minutes to remove a culture medium, followed by washing with PBS once. The resultant was suspended using a FACS buffer, transferred to a round bottom tube, and centrifuged at room temperature and 2000 rpm for 3 minutes. A supernatant was removed, and the resultant was suitably dissolved using the FACS buffer so as to have a concentration of 4×10⁵ ea/mL. Then, a candidate antibody (1 μg) was added thereto at 4° C., and in an […] control group, a human IgG (1m, Sigma) was added instead of the candidate antibody. After 1 hour, the resultant was washed with the FACS buffer two times, a goat anti-human IgG antibody and FITC conjugated were added thereto at an amount of 1 μL per sample and bound thereto at 4° C. for 30 minutes. After collecting cells by centrifugation at 2000 rpm for 3 minutes, the cells were re-suspended by adding a fixation buffer (500 μL), and measured using a FACS calibur (FIG. 5).

The target is the same in experiment [3]. Briefly: FACS, SK-Hep1-GPC3 #9 cells, 1 ug antibody; upper right panel. The method, then:
as §1
In general terms: Flow cytometry measures light scatter and fluorescence of single cells or particles in a stream.

Experiment [4] has the same target. The experiment in a line: FACS, HepG2 cells, 1 ug antibody; upper right panel (Synthetic library).

Changes are numbered by the printed parent chain.

B1: clone GX090 (scFv, V domains shown)
VH: QVQLVQSGAEVKKPGASVKVSCKASGYTFTSYGISWVRQAPGQGLEWMGWISAYNGNTNYAQKLQGRVTMTTDTSTSTAYMELRSLRSDDTAVYYCARGSSFSGFDPWGQGTLVTVSS
VL: QSVLTQPPSLSAAPGQKVTISCSGSSSNIGKNHVSWYQQFPGTAPKFLIYDNHRRPSGIPDRFSGSKSGTSATLDITGLQTGDEATYYCGTWDSSLSAVVFGGGTKLTVLG
notes: scFv library clone tested as culture supernatant
With B1, the “Mean, FL2-H” value in experiment [1] amounted to 3.49; in experiment [2] it was 10.2.

B2: clone GX225 (scFv, V domains shown)
VH: QVQLVQSGAEVKKPGASVKVSCKASGYTFTSYYMHWVRQAPGQGLEWMGIINPSGGSTSYAQKFQGRVTMTRDTSTSTVYMELSSLRSEDTAVYYCARESGPSGGMDVWGQGTTVTVSS
VL: SYELTQPPSVSVSPGQTARITCSGDALPKQYAYWYQQKPGQAPVLVIYKDSERPSGIPERFSGSSSGTTVTLTISGVQAEDEADYYCSSYTSSSTRVVFGGGTKLTVLG
notes: as for B1
On to B2, for which the “Mean, FL2-H” value came out at 9.81 in experiment [1] and 37.8 in experiment [2].

B3: clone GS013 (scFv, V domains shown)
VH: EVQLLESGGGLVQPGGSLRLSCAASGFTFSNYAMSWVRQAPGKGLEWVSSISSGGGSTYYADSVKGRFTISRDNSKNTLYLQMNSLRAEDTAVYYCARKKSQFDYWGQGTLVTVSS
VL: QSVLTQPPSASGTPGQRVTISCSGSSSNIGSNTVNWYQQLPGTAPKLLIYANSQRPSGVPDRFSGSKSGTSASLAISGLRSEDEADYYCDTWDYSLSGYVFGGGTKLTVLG
notes: as for B1
As for B3, the “Mean, FL2-H” value in experiment [3] was 7.43; in experiment [4], 6.07.

B4: clone GX099 (scFv, V domains shown)
VH: EVQLVESGAEVKKPGASVKVSCKASGYTFTSYYMHWVRQAPGQGLEWMGIINPSGGSTSYAQKFQGRVTMTRDTSTSTVYMELSSLRSEDTAVYYCARYSSSPAKIDYWGQGTLVTVSS
VL: QSVLTQPPSVSAAPGEKVIISCSGSSSNIGKYYVSWYQQLPGTAPKLLIYDNNKRPSGIPDRFSGSKSGTSATLGISGLQTGDEADYYCGTWDSSLNLVFGTGTKVTVLG
notes: as for B1
B4: the “Mean, FL2-H” value came out at 13.2 in experiment [1] and 40.1 in experiment [2].

B5: clone GS009 (scFv, V domains shown)
VH: EVQLLESGGGLVQPGGSLRLSCAASGFTFSNYSMSWVRLAPGKGLEWVSVISPSGGNTYYADSVKGRFTISRDNSKNTLYLQMNSLRAEHTAVYYCARYRVKQMLNQRSYSNAMDVWGQGTLVTVSS
VL: QSVLTQPPSASGTPGQRVTISCTGSSSNIGNNYVSWYQQLPGTAPKLLIYDDSQRPSGVPDRFSGSKSGTSASLAISGLRSEDEADYYCGSWDASLSGYVFGGGTKLTVLG
notes: as for B1
Regarding B5, the “Mean, FL2-H” value amounted to 12.3 in experiment [3] and 8.12 in experiment [4].

B6: clone GS017 (scFv, V domains shown)
VH: EVQLLESGGGLVQPGGSLRLSCAASGFTFSGYAMSWVRQAPGKGLEWVSGISPGDGSTYYADSVKGRFTISRDNSKNTLYLQMNSLRAEDTAVYYCARVARMCQGWRCSYADGMDVWGQGTLVTVSS
VL: B5 VL with Y33S, S35Y, D51S, Q54H, S91T, A94S
notes: as for B1
As to B6, the “Mean, FL2-H” value in experiment [3] is 27.5; in experiment [4] it was 12.2.

B7: clone GS008 (scFv, V domains shown)
VH: EVQLLESGGGLVQPGGSLRLSCAASGFTFSNYAMSWVRQAPGKGLEWVSVISPDNGSTYYADSVKGRFTISRDNSKNTLYLQMNSLRAEDTAVYYCARARVHCRRDQCYSYGMDVWGQGTLVTVSS
VL: B5 VL with N31S, Y33N, S35T, D51A, D52N, S91A, A94S, S97N
notes: as for B1
With B7, the results for the “Mean, FL2-H” value in experiment [3] and in experiment [4] were 4.89 and 8.85, respectively.

B8: clone GS001 (scFv, V domains shown)
VH: EVQLLESGGGLVQPGGSLRLSCAASGFTFSSYSMSWVRQAPGKGLEWVSGISPSGGNKYYADSVKGRFTISRDNSKNTLYLQMNSLRAEDTAVYYCARALLGCKSAYCYYAMDVWGQGTLVTVSS
VL: B5 VL with N31S, Y33A, S35N, D51A, Q54K, A94S
notes: as for B1
Consider B8, for which the “Mean, FL2-H” value in experiment [3] was 5.32; in experiment [4], 8.76.

B9: clone GS005 (scFv, V domains shown)
VH: EVQLLESGGGLVQPGGSLRLSCAASGFTFSNYAMSWVRQAPGKGLEWVSVISPDSSSKYYADSVKGRFTISRDNSKNTLYLQMNSLRAEDTAVYYCARAAVRRYGPSPYYYYAMDVWGQGTLVTVSS
VL: B5 VL with S35T, D51A, Q54H, G90A, S91T, A94Y
notes: as for B1
For B9, the figures for the “Mean, FL2-H” value in experiment [3] and in experiment [4] were 4.98 and 11, respectively.

B10: clone GS007 (scFv, V domains shown)
VH: EVQLLESGGGLVQPGGSLRLSCAASGFTFSNYSMSWVRQAPGKGLEWVSVISHDGRSKYYADSVKGRFAISRDNSKNTLYLQMNSLRAEDTAVYYCAKFRVWKRTNAHSYANAMDVWGQGTLVTVSS
VL: B5 VL with V18A, N31S, Y33S, D51A, D52N, Q54N, S91T, G98A
notes: as for B1
For B10, the “Mean, FL2-H” value in experiment [3] worked out at 3.94; in experiment [4], 11.3.

B11: clone GX206 (scFv, V domains shown)
VH: QLQLQESGPGLVKPSETLSLTCTVSGGSISSSSYYWGWIRQPPGKGLEWIGSIYYSGSTYYNPSLKSRVTISVDTSKNQFSLKLSSVTAADTAVYYCARLGDYGGNGYYFDYWGQGTLVTVSS
VL: QSVLTQPPSVSAASGQKVTVSCSGSSSNIGKNGVSWHQQLPGTAPKLLIYENNRRPSEIPDRFSGSKSGTSATLAITGLQTGDEADYYCGTWDSSLNAGVFGTGTKVTVLG
notes: as for B1
With B11, the “Mean, FL2-H” value came out at 5.08 in experiment [1] and 14.9 in experiment [2].

B12: clone GX253 (scFv, V domains shown)
VH: EVQLVESGGGLVKPGGSLRLSCAASGFTFSDYYMSWIRQAPGKGLEWVSYISSSGTTIYYADSVKGRFTISRDNAKKSLYLQMNSLRAEDTAVYYCARVRDSSGFWGRGTLVTVSS
VL: QSVLTQPPSVSAAPGQKVTISCSGSSSNIGNNYVSWYQQLPGTAPKLLIYDNNKRPSGIPDRFSGSKSGTSATLGITGLQTGDEADYYCGTWDSSLSAWVVGGGTKLTVLG
notes: as for B1
With B12, the results for the “Mean, FL2-H” value in experiment [1] and in experiment [2] were 6.12 and 13.7, respectively.

B13: clone GX248 (scFv, V domains shown)
VH: QMQLVQSGAEVKKPGASVKVSCKASGGTFSSYAISWVRQAPGQGLEWMGGIIPIFGTANYAQKFQGRVTITADESTSTAYMELSSLRSEDTAVYYCARVRGTGPRGGTFDYWGQGTLVTVSS
VL: B12 VL with V101F
notes: as for B1
Regarding B13, the results for the “Mean, FL2-H” value in experiment [1] and in experiment [2] were 5.71 and 13.3, respectively.

B14: clone GX118 (scFv, V domains shown)
VH: QLQLQESGPGLVKPSETLSLTCTVSGGSISSSSYYWGWIRQPPGKGLEWIGSIYYSGSTYYNPSLKSRVTISVDTSKNQFSLKLSSVTAADTAVYYCARLRSFADNYVWGSYASYYFDYWGRGTLVTVSS
VL: B12 VL with L4V, K17R, Y33F, Y37H, S94N, S97G, A98T, W99G, V101F
notes: as for B1
With B14, in experiment [2], the “Mean, FL2-H” value amounted to 5.95.

B15: clone GX234 (scFv, V domains shown)
VH: QVQLVQSGAEVKKPGASVKVSCKASGYTFTSYGISWVRQAPGQGLEWMGWISAYNGNTNYAQKLQGRVTMTTDTSTSTAYMELRSLRSDDTAVYYCARVGLGDFWSGDYYYYYYGMDVWGQGTTVTVSS
VL: SSELTQDPAVSVALGQTVRITCQGDSLRSSYASWYHQKPGQAPVLVMYGKNNRPSGIPDRFSGSSSGNTASLTITGAQAEDEADYYCHSRDSTGSHPNWVFGGGTKLTVLG
notes: as for B1
Consider B15, for which the “Mean, FL2-H” value was 12.6 in experiment [1] and 62.9 in experiment [2].

B16: clone GX119 (scFv, V domains shown)
VH: EVQLVESGGGVVQPGRSLRLSCAASGFTFSSYGMHWVRQAPGKGLEWVAVIWYDGSNKYYADSVKGRFTISRDNSKNTLYLQMNSLRAEDTAVYYCARDRSWNYYGMDVWGQGTTVTVSS
VL: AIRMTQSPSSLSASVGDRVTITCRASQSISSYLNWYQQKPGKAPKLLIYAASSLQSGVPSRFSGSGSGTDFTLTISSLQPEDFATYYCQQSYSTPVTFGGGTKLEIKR
notes: as for B1
Take B16: the “Mean, FL2-H” value in experiment [1] turned out to be 5.62; in experiment [2] it was 13.3.

B17: clone GS011 (scFv, V domains shown)
VH: EVQLLESGGGLVQPGGSLRLSCAASGFTFSNYAMSWVRQAPGKGLEWVSGISPGGSSIYYADSVKGRFTISRDNSKNTLYLQMNSLRAEDTAVYYCARYAVYFLRSHGSYDYGMDVWGQGTLVTVSS
VL: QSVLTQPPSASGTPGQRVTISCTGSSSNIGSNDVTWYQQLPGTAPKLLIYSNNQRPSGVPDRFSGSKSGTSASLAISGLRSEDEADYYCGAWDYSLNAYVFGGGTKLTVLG
notes: as for B1
For B17, the “Mean, FL2-H” value in experiment [3] worked out at 22.9; in experiment [4] it was 6.5.

B18: clone GX207 (scFv, V domains shown)
VH: EVQLVQSGAEVKKPGASVKVSCKASGYTFTSYGISWVRQAPGQGLEWMGWISAYNGNTNYAQKLQGRVTMTTDTSTSTAYMELRSLRSDDTAVYYCAREGIAAAGYYYGMDVWGQGTTVTVSS
VL: QSALTQPPSVSGSPGQSVTISCTGTSSDVGGYNRVSWYQQPPGTAPKLMIYEVSNRPSGVPDRFSGSKSGNTASLTISGLQAEDEADYYCSSYTSSTTYVFGTGTKVTVLG
notes: as for B1
As to B18, the figures for the “Mean, FL2-H” value in experiment [1] and in experiment [2] were 5 and 9.91, respectively.

These data come from patent US20180346592A1 (MOGAM INSTITUTE FOR BIOMEDICAL RESEARCH, published 2018).
